According to PMC7447634, “KIN10 promotes stomatal development through stabilization of the [sequence] transcription factor” (Nature Communications, 2020):

Target: T1, maltose-binding protein (MBP)-KIN10 (Arabidopsis thaliana, UniProt Q38997-2 1-512)
T1 construct: KIN10, catalytic alpha subunit of SnRK1, Arabidopsis thaliana; full-length cDNA without stop codon in pMAL2CGW (N-MBP); also called KIN10-MBP; source: bacteria (Escherichia coli), purified (amylose resin); not shown: MBP, N-terminal, kept
T1 sequence (looked up): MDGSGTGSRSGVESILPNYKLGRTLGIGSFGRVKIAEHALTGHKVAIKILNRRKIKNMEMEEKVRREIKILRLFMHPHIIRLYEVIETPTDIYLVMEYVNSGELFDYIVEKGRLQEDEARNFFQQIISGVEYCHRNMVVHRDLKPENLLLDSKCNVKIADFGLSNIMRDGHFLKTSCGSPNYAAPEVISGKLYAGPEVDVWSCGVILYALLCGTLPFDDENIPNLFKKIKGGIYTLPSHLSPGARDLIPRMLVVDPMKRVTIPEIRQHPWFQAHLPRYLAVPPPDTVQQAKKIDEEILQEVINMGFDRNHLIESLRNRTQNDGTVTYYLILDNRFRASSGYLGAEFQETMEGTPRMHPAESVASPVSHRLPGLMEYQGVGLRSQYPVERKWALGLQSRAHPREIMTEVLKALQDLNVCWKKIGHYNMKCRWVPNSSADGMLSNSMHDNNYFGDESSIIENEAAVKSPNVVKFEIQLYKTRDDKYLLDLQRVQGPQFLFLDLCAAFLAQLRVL
Experiment: pull-down; 1 µg GST-SPCH bound to glutathione agarose beads incubated with 1 µg MBP or MBP-KIN10; 20 mM Tris-HCl pH 7.5, 100 mM NaCl, 1 mM EDTA, 4 °C, 1 h; washed with 300 mM NaCl, 0.1% Nonidet P-40; blot with anti-MBP
Details: both partners purified

- binding result: binds
B1: glutathione S-transferase (GST)-SPCH (natural protein, Arabidopsis thaliana, UniProt Q700C7 1-364, looked up)
chain: MQEIIPDFLEECEFVDTSLAGDDLFAILESLEGAGEISPTAASTPKDGTTSSKELVKDQDYENSSPKRKKQRLETRKEEDEEEEDGDGEAEEDNKQDGQQKMSHVTVERNRRKQMNEHLTVLRSLMPCFYVKRGDQASIIGGVVEYISELQQVLQSLEAKKQRKTYAEVLSPRVVPSPRPSPPVLSPRKPPLSPRINHHQIHHHLLLPPISPRTPQPTSPYRAIPPQLPLIPQPPLRSYSSLASCSSLGDPPPYSPASSSSSPSVSSNHESSVINELVANSKSALADVEVKFSGANVLLKTVSHKIPGQVMKIIAALEDLALEILQVNINTVDETMLNSFTIKIGIECQLSAEELAQQIQQTFC
notes: full-length cDNA without stop codon in pDEST15 (N-GST); source: bacteria, purified (glutathione beads); not shown: GST, N-terminal, kept
